Reference: publication PMC10514999, “The PyPIF5-PymiR156a-PySPL9-PyMYB114/MYB10 module regulates light-induced anthocyanin biosynthesis in red pear”

T1: PyPIF5 (Pyrus (red pear; cultivar of the cloned …, UniProt A0A5N5GDZ9 1-552)
T1 sequence: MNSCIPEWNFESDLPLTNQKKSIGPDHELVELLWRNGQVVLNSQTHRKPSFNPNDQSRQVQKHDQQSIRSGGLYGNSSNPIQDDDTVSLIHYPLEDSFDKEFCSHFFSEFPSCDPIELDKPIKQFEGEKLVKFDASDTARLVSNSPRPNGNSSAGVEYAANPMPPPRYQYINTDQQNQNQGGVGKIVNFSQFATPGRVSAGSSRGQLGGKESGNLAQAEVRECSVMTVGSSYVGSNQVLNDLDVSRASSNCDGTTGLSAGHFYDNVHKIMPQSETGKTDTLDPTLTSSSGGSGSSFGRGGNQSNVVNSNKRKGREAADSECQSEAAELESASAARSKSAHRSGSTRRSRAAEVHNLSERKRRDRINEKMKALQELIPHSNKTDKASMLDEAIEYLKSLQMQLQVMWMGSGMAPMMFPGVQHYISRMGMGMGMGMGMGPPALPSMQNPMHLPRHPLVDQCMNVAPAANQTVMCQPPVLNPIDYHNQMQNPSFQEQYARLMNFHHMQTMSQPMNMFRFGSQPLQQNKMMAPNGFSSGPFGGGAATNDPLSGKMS


Key:
PyPIF5 [1] = biological target: T1, PyPIF5; assay: competition; unlabeled competitor of N1; binding gradually reduced; EMSA: 500 ng PyPIF5-His, 20 nM biotin probe, 20 uL with 4 uL 5x EMSA/Gel-Shift buffer (Beyotime GS009), 20 min, room temperature (~25 C); salt and pH not stated; settings: protein: recombinant; tags: His (pColdTF vector); chain copies: 2; as N1, 37/36 nt as printed
PyPIF5 [2] = biological target: T1, PyPIF5; assay: EMSA; mutant probe, G-box destroyed; Methods also describe it as a competitor; EMSA: 500 ng PyPIF5-His, 20 nM biotin probe, 20 uL with 4 uL 5x EMSA/Gel-Shift buffer (Beyotime GS009), 20 min, room temperature (~25 C); salt and pH not stated; settings: protein: recombinant; tags: His (pColdTF vector); chain copies: 2; label: biotin; blunt

Binder | binding result (PyPIF5 [1]) | binding result (PyPIF5 [2])
Cold-probe (dsDNA) DNA 1: TTGTAAAGAACACGTACGTTACACGTACGCTGAAACA DNA 2: TGTTTCAGCGTAGTGTAACGTACGTGTTCTTTACAA | binds | 
Bio-Mut-probe (dsDNA) DNA 1: TTGTAAAGAACAGATACGTTACACTACGCTGAAACA DNA 2: TGTTTCAGCGTAGTGTAACGTATCTGTTCTTTACAA |  | no binding
